This data set can be described thus: self-splicing fitness, log relative to wild type (ln ratio); higher = more splicing; Tetrahymena group I intron in knt gene, E. coli kanamycin selection, DiMSum; sequences stand for … in CUCUCU…GGAGGGAAAAGUUAUCAGGCAUGCACCUGGUAGCUAGUCUUUAAACCAAUAGAUUGCAUCGGUUUAAAAGGCAAGACCGUCAAAUUGCGGGAAAGGGGUCAACAGCCGUUCAGUACCAAGUCUCAGGGGAAACUUUGAGAUGGCCUUGCAAAGGGUAUGGUAAUAAGCUGACGGACAUGGUCCUAACCACGCAGCCAAGUCCUAAGUCAACAGAUCUUCUGUUGAUAUGGAUGCAGUUCACAGACUAAAUGUCGGUCGGGGAAGAUGUAUUCUUCUCAUAAGAUAUAGUCGGACCUCUCCUUAAUGGGAGCUAGCGGAUGAAGUGAUGCAACACUGGAGCCGCUGGGAACUAAUUUGUAUGCGAAAGUAUAUUGAUUAGUUUUGGAGUACUCGUGGUCG
Put shortly:
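Six replicate transformations of E. coli BL21(DE3) with a pET-22b(+) library were grown overnight at 37°C or 30°C. The library randomised all eight P1ex-region intron nucleotides, the intron lying in the knt kanamycin-resistance gene, and plates were LB agar with or without 25 μg/mL kanamycin plus 100 μg/mL carbenicillin, 50 μM IPTG and 0.2% rhamnose. Pooled colonies were amplicon-sequenced on an Illumina HiSeq 2500, and fitness is the DiMSum error-weighted combination of wild-type-normalised replicate fold changes, kanamycin versus none.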

± gives the uncertainty stated by the source.

For the sequence UUAAAGCAAUAUUACGCCCC, the “self-splicing fitness (ln)” value by setting is: (30 °C) -0.451 ± 0.27; (37 °C) 0.901 ± 0.38.

Take GACCAGCAAUAUUACGUACC: the “self-splicing fitness (ln)” value (30 °C) was -0.415 ± 0.08 and the “self-splicing fitness (ln)” value (37 °C) is -0.106 ± 0.098.

As for ACCAAGCAAUAUUACGGAUU, the “self-splicing fitness (ln)” value (30 °C) was -2.62 ± 0.081 and the “self-splicing fitness (ln)” value (37 °C) was -1.06 ± 0.081.

With UCCCAGCAAUAUUACGGGAU, the “self-splicing fitness (ln)” value (30 °C) is -3.59 ± 0.14 and the “self-splicing fitness (ln)” value (37 °C) is -3.46 ± 0.21.

Take ACACAGCAAUAUUACGGGCU: the “self-splicing fitness (ln)” value (30 °C) is -2.08 ± 0.093 and the “self-splicing fitness (ln)” value (37 °C) was -1.11 ± 0.13.

Turning to AGGUAGCAAUAUUACGCCAG, the “self-splicing fitness (ln)” value was -1.22 ± 0.02 (30 °C) and -0.873 ± 0.037 (37 °C).

As to AUGCAGCAAUAUUACGCUAC, the “self-splicing fitness (ln)” value is, setting by setting: (30 °C) -3.31 ± 0.21; (37 °C) -2.38 ± 0.23.

Take GUAUAGCAAUAUUACGCGAC: the “self-splicing fitness (ln)” value (30 °C) was -2.49 ± 0.3.

On to CCGAAGCAAUAUUACGUAAU, for which the “self-splicing fitness (ln)” value is -3.37 ± 0.24 (30 °C) and -2.54 ± 0.18 (37 °C).

CUGCAGCAAUAUUACGGGGU: the “self-splicing fitness (ln)” value reads like this: (30 °C) -4.93 ± 0.45; (37 °C) -2.73 ± 0.2.

Regarding UUCGAGCAAUAUUACGACGC, the “self-splicing fitness (ln)” value (37 °C) is -2.67 ± 0.48.

Consider UUUUAGCAAUAUUACGGUUG, for which the “self-splicing fitness (ln)” value (30 °C) was -1.77 ± 0.15 and the “self-splicing fitness (ln)” value (37 °C) was -0.623 ± 0.23.

Take UGGAAGCAAUAUUACGGUGU: the “self-splicing fitness (ln)” value (30 °C) was -1.46 ± 0.14 and the “self-splicing fitness (ln)” value (37 °C) was -3.33 ± 0.27.

With CCGGAGCAAUAUUACGUAAU, the “self-splicing fitness (ln)” value by setting is: (30 °C) -3.95 ± 0.15; (37 °C) -3.36 ± 0.23.

For the sequence CCACAGCAAUAUUACGCCUG, the “self-splicing fitness (ln)” value runs as follows: (30 °C) -1.51 ± 0.092; (37 °C) -0.296 ± 0.1.

Regarding AAUAAGCAAUAUUACGCGUC, the “self-splicing fitness (ln)” value is, setting by setting: (30 °C) -1.45 ± 0.13; (37 °C) -1.15 ± 0.16.

As to GAUAAGCAAUAUUACGUCCU, the “self-splicing fitness (ln)” value by setting is: (30 °C) -0.907 ± 0.14; (37 °C) -0.0126 ± 0.19.

Take GGCCAGCAAUAUUACGGGGG: the “self-splicing fitness (ln)” value was -3.54 ± 0.18 (30 °C) and -1.85 ± 0.17 (37 °C).

For the sequence ACCCAGCAAUAUUACGAUAC, the “self-splicing fitness (ln)” value by setting is: (30 °C) -2.94 ± 0.17; (37 °C) -0.588 ± 0.13.

As for GGUCAGCAAUAUUACGAGCU, the “self-splicing fitness (ln)” value is -0.647 ± 0.097 (30 °C) and -0.497 ± 0.12 (37 °C).

Consider CCUCAGCAAUAUUACGCUUG, for which the “self-splicing fitness (ln)” value was -4.31 ± 0.37 (30 °C) and -2.52 ± 0.23 (37 °C).

In the case of GAAUAGCAAUAUUACGGCUG, the “self-splicing fitness (ln)” value (30 °C) is -0.443 ± 0.083 and the “self-splicing fitness (ln)” value (37 °C) is -0.941 ± 0.1.

For the sequence AAGAAGCAAUAUUACGAUUU, the “self-splicing fitness (ln)” value runs as follows: (30 °C) -0.181 ± 0.065; (37 °C) 0.764 ± 0.1.

On to CCCCAGCAAUAUUACGAUGA, for which the “self-splicing fitness (ln)” value is -3.16 ± 0.16 (30 °C) and -3.01 ± 0.19 (37 °C).

For UCUGAGCAAUAUUACGUAUC, the “self-splicing fitness (ln)” value by setting is: (30 °C) -3.62 ± 0.25; (37 °C) -1.69 ± 0.25.

In the case of GCUAAGCAAUAUUACGGUAU, the “self-splicing fitness (ln)” value runs as follows: (30 °C) -0.915 ± 0.083; (37 °C) -0.555 ± 0.1.

With CGAUAGCAAUAUUACGCGUC, the “self-splicing fitness (ln)” value (37 °C) was -1.76 ± 0.47.

In the case of GGUAAGCAAUAUUACGUCAC, the “self-splicing fitness (ln)” value (30 °C) was -2.85 ± 0.24 and the “self-splicing fitness (ln)” value (37 °C) is -2.04 ± 0.23.

Consider UCAAAGCAAUAUUACGUAGU, for which the “self-splicing fitness (ln)” value runs as follows: (30 °C) -3.63 ± 0.21; (37 °C) -1.69 ± 0.17.

AGGCAGCAAUAUUACGACGA: the “self-splicing fitness (ln)” value is -0.555 ± 0.12 (30 °C) and -0.00249 ± 0.14 (37 °C).

Consider CGUGAGCAAUAUUACGCGAG, for which the “self-splicing fitness (ln)” value (30 °C) was -1.12 ± 0.21.

Take AUUCAGCAAUAUUACGCGCA: the “self-splicing fitness (ln)” value (30 °C) was -0.00177 ± 0.12 and the “self-splicing fitness (ln)” value (37 °C) is -0.315 ± 0.12.

For the sequence UGAUAGCAAUAUUACGUGUC, the “self-splicing fitness (ln)” value is -3.92 ± 0.28 (30 °C) and -2.49 ± 0.26 (37 °C).

As for GCUAAGCAAUAUUACGAUGA, the “self-splicing fitness (ln)” value (30 °C) is -0.837 ± 0.09 and the “self-splicing fitness (ln)” value (37 °C) was -0.253 ± 0.1.

Take GCGAAGCAAUAUUACGCUAG: the “self-splicing fitness (ln)” value (30 °C) was -3.28 ± 0.26 and the “self-splicing fitness (ln)” value (37 °C) was -0.964 ± 0.32.

For the sequence CACGAGCAAUAUUACGAAGA, the “self-splicing fitness (ln)” value was -2.89 ± 0.22 (30 °C) and -3.38 ± 0.27 (37 °C).

Turning to AUCUAGCAAUAUUACGAGGC, the “self-splicing fitness (ln)” value (37 °C) is -2.69 ± 0.34.

With GAGUAGCAAUAUUACGAAGC, the “self-splicing fitness (ln)” value reads like this: (30 °C) -2.94 ± 0.32; (37 °C) -1.8 ± 0.44.

Consider GUGCAGCAAUAUUACGCAAU, for which the “self-splicing fitness (ln)” value is -1.75 ± 0.085 (30 °C) and -1.37 ± 0.12 (37 °C).
